Data from article PMC5099578, “A structural and functional study on the 2-C-methyl-D-erythritol-4-phosphate cytidyltransferase (IspD) from Bacillus subtilis” (Scientific Reports, 2016).

Legend:
Test in all cases: purified protein
[1] = substrate: Nc1ccn([C@@H]2O[C@H](COP(=O)(O)OP(=O)(O)OP(=O)(O)O)[C@@H](O)[C@H]2O)c(=O)n1; conditions: MEP co-substrate, 1 mM MgCl2, 0.1 M Tris-HCl pH 8.0, 1 mM DTT, 30 °C, CTP varied 10-500 μM, paper inconsistent: text gives 291.5 for CTP (kcat 2307.7), Table 2 prints it under MEP (kcat 2307.2)
[2] = substrate: C[C@](O)(CO)[C@H](O)COP(=O)(O)O; assay type: biochemical, Bacillus subtilis; conditions: CTP co-substrate, 1 mM MgCl2, 0.1 M Tris-HCl pH 8.0, 1 mM DTT, 30 °C, MEP varied 10-400 μM, paper inconsistent: text gives 132.8 for MEP, Table 2 prints it under CTP
[3] = substrate: Nc1ccn([C@@H]2O[C@H](COP(=O)(O)OP(=O)(O)OP(=O)(O)O)[C@@H](O)[C@H]2O)c(=O)n1; assay type: biochemical, Bacillus subtilis; conditions: MEP co-substrate, 1 mM MgCl2, 0.1 M Tris-HCl pH 8.0, 1 mM DTT, 30 °C, CTP varied 10-500 μM, paper inconsistent: text gives 124.8 for CTP, Table 2 prints it under MEP

Row | Protein | Km [1] [µM] | kcat [1] [s⁻¹] | kcat/Km [1] [M⁻¹ s⁻¹] | Km [2] [µM] | kcat [2] [s⁻¹] | kcat/Km [2] [M⁻¹ s⁻¹] | Km [3] [µM] | kcat [3] [s⁻¹] | kcat/Km [3] [M⁻¹ s⁻¹]
1 | EcIspD (Escherichia coli K-12) (protein, pET22b, C-terminal His6 tag removed with thrombin; expressed in E. coli BL21 (DE3)) ATTHLDVCAVVPAAGFGRRMQTECPKQYLSIGNQTILEHSVHALLAHPRVKRVVIAISPGDSRFAQLPLANHPQITVVDGGDERADSVLAGLKAAGDAQWVLVHDAARPCLHQDDLARLLALSETSRTGGILAAPVRDTMKRAEPGKNAIAHTVDRNGLWHALTPQFFPRELLHDCLTRALNEGATITDEASALEYCGFHPQLVEGRADNIKVTRPEDLALAEFYLTRTIHQENT | 291.5 ± 44 | 38.5 | 132000 |  |  |  |  |  | 
2 | BsIspD (Bacillus subtilis subsp. subtilis str. 168) (protein, full length (699 bp gene, 232 residues built); pGEX-6P-1, expressed in E. coli, GST tag cut with PreScission protease; homodimer) MSYDVVIPAAGQGKRMKAGRNKLFIELKGDPVIIHTLRVFDSHRQCDKIILVINEQEREHFQQLLSDYPFQTSIELVAGGDERQHSVYKGLKAVKQEKIVLVHDGARPFIKHEQIDELIAEAEQTGAAILAVPVKDTIKRVQDLQVSETIERSSLWAVQTPQAFRLSLLMKAHAEAERKGFLGTDDASLVEQMEGGSVRVVEGSYTNIKLTTPDDLTSAEAIMESESGNKHV |  |  |  | 132.8 ± 29 | 71.2 | 536000 | 124.8 ± 19 | 36.3 | 291000
